IntAct's records for PubMed 24366543

B1: Nuclear factor erythroid 2-related factor 2 (Mus musculus), Q60795 (parent)
chain: MMDLELPPPGLQSQQDMDLIDILWRQDIDLGVSREVFDFSQRQKDYELEKQKKLEKERQEQLQKEQEKAFFAQFQLDEETGEFLPIQPAQHIQTDTSGSASYSQVAHIPKQDALYFEDCMQLLAETFPFVDDHESLALDIPSHAESSVFTAPHQAQSLNSSLEAAMTDLSSIEQDMEQVWQELFSIPELQCLNTENKQLADTTAVPSPEATLTEMDSNYHFYSSISSLEKEVGNCGPHFLHGFEDSFSSILSTDDASQLTSLDSNPTLNTDFGDEFYSAFIAEPSDGGSMPSSAAISQSLSELLDGTIEGCDLSLCKAFNPKHAEGTMEFNDSDSGISLNTSPSRASPEHSVESSIYGDPPPGFSDSEMEELDSAPGSVKQNGPKAQPAHSPGDTVQPLSPAQGHSAPMRESQCENTTKKEVPVSPGHQKAPFTKDKHSSRLEAHLTRDELRAKALHIPFPVEKIINLPVDDFNEMMSKEQFNEAQLALIRDIRRRGKNKVAAQNCRKRKLENIVELEQDLGHLKDEREKLLREKGENDRNLHLLKRRLSTLYLEVFSMLRDEDGKPYSPSEYSLQQTRDGNVFLVPKSKKPDTKKN

Variants of: B1
Details: with keap1_mouse Keap1, Q9Z2X8
keap1_mouse Keap1, Q9Z2X8, sequence (Q9Z2X8 whole entry): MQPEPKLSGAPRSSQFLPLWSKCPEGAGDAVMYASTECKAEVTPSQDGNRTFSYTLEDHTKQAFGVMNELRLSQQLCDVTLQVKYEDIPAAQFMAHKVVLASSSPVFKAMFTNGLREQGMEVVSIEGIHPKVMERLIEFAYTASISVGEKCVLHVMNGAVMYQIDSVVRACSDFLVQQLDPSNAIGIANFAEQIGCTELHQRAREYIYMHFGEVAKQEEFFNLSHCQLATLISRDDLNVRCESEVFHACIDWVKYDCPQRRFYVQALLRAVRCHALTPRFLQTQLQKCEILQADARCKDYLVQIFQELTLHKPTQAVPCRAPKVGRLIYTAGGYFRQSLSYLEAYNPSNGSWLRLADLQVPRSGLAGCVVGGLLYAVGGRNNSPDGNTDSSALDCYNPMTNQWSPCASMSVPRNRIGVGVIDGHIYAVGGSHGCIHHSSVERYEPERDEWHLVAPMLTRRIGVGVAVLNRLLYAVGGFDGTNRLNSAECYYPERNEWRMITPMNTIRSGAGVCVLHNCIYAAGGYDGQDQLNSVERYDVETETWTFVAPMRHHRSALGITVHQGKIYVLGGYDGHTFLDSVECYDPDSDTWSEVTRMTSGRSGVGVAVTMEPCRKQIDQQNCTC

Row | Variant | effect of a mutation on the interaction
1 | L23R | disrupting interaction

Variants of: B1
Details: with keap1_mouse Keap1, Q9Z2X8
Remark: another data set of the same source

Row | Variant | effect of a mutation on the interaction
2 | S33R | increasing interaction

Variants of: B1
Details: with keap1_mouse Keap1, Q9Z2X8
Remark: another data set of the same source

Row | Variant | effect of a mutation on the interaction
3 | Q26E | disrupting interaction

Variants of: B1
Details: with keap1_mouse Keap1, Q9Z2X8
Remark: another data set of the same source

Row | Variant | effect of a mutation on the interaction
4 | D29H | disrupting interaction

Variants of: B1
Details: with keap1_mouse Keap1, Q9Z2X8
Remark: another data set of the same source

Row | Variant | effect of a mutation on the interaction
5 | D29G | disrupting interaction

Variants of: B1
Details: with keap1_mouse Keap1, Q9Z2X8
Remark: another data set of the same source

Row | Variant | effect of a mutation on the interaction
6 | V32G | disrupting interaction

Variants of: B1
Details: with keap1_mouse Keap1, Q9Z2X8
Remark: another data set of the same source

Row | Variant | effect of a mutation on the interaction
7 | W24C | disrupting interaction

Variants of: B1
Details: with keap1_mouse Keap1, Q9Z2X8
Remark: another data set of the same source

Row | Variant | effect of a mutation on the interaction
8 | W24R | disrupting interaction

Variants of: B1
Details: with keap1_mouse Keap1, Q9Z2X8
Remark: another data set of the same source

Row | Variant | effect of a mutation on the interaction
9 | G31A | disrupting interaction

Variants of: B1
Details: with keap1_mouse Keap1, Q9Z2X8
Remark: another data set of the same source

Row | Variant | effect of a mutation on the interaction
10 | Q43R | increasing interaction

Variants of: B1
Details: with keap1_mouse Keap1, Q9Z2X8
Remark: another data set of the same source

Row | Variant | effect of a mutation on the interaction
11 | L30F | disrupting interaction

Variants of: B1
Details: with keap1_mouse Keap1, Q9Z2X8
Remark: another data set of the same source

Row | Variant | effect of a mutation on the interaction
12 | R34Q | disrupting interaction

Variants of: B1
Details: with keap1_mouse Keap1, Q9Z2X8
Remark: another data set of the same source

Row | Variant | effect of a mutation on the interaction
13 | D27Y | disrupting interaction

Variants of: B1
Details: with keap1_mouse Keap1, Q9Z2X8
Remark: another data set of the same source

Row | Variant | effect of a mutation on the interaction
14 | I28T | disrupting interaction
